These results are taken from PMC9475553, “SHF Acts as a Novel Tumor Suppressor in Glioblastoma Multiforme by Disrupting STAT3 Dimerization” (Advanced Science, 2022).

This experiment has as its target T1, recombinant STAT3 (immobilized, static adsorption assay) (UniProt P40763 1-770).
T1 construct: STAT3, called 'recombinant STAT3' in the legend and 'immobilized STAT3 peptide' in the results; also called immobilized STAT3; STAT3 (powder)
Nature of the experiment: static adsorption equilibrium assay; immobilized STAT3 (85 nmol g^-1 wet gel) in 20 mL PBS with 2-20 µM C16 or scramble, stirred 12 h; free peptide by absorbance at 240 nm; Langmuir isotherm. The following applies: both partners purified.

T1 sequence (P40763 whole entry): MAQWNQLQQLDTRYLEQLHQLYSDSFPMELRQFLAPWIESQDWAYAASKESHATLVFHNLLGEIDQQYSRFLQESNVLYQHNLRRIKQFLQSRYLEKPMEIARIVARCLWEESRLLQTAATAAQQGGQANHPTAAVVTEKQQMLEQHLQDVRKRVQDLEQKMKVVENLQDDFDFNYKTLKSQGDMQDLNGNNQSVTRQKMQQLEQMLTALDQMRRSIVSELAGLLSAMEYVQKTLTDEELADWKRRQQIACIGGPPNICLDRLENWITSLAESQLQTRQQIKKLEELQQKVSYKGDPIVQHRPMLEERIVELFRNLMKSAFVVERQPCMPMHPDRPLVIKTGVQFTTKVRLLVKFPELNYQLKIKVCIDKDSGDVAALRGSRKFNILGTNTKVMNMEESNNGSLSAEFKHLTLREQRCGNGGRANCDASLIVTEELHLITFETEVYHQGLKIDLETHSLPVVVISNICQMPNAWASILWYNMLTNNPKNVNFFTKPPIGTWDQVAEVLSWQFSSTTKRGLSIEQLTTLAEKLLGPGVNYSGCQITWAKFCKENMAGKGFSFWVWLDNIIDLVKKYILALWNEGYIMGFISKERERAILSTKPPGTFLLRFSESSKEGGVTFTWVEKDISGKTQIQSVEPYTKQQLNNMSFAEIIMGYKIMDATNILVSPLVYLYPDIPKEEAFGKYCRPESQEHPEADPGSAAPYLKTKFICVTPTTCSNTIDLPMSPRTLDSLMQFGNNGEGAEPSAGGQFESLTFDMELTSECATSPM

B1: C16 peptide (derived from the STAT3-binding sites of SHF) (peptide, UniProt Q7M4L6 388-421, looked up)
peptide: PFSSVPEIVHHYASRKLPIKGAEHMSLLYPVAIR
modifications: palmitic acid at the N-terminus; amidated C-terminus
notes: '3× His tags' is not explained further (three histidines or three His tags); source: synthetic peptide (Genscript; solid-phase Fmoc synthesis, RP-HPLC, purity above 95%); not shown: 3× His tags, C-terminal, kept
Take B1: the “stoichiometry N” value was determined as 1.
